The values that follow come from patent publication US20160083450A1, “HUMAN PROTEIN SCAFFOLD WITH CONTROLLED SERUM PHARMACOKINETICS” (THE REGENTS OF THE UNIVERSITY OF CALIFORNIA, priority 2009, published 2016).

On the set-up of data set [1]: species or system Balb/c mice. The following applies: mouse, in vivo. The method, then: Their pharmacokinetic profile in blood was evaluated in vivo by injecting each ^131I-labeled DIII protein intravenously in Balb/c mice. Blood was drawn from the tail at eight different time points (0-72 h) and the radioactivity was counted in a gamma well counter.
Data set [2] is classed as physicochemical. The method, then: (§1) When dissolved in aqueous solution, the peptide precipitated. Lack of solubility in water immediately renders this peptide inappropriate for in vivo application. Prior to conjugation, the HyNic modified peptide was dissolved in dimethyl formamide (DMF) organic solvent. The purified DIM was modified to incorporate the 4FB moiety at random lysine residues following protocols provided by SoluLink. After conjugation, the peptide/DIII ratio was determined by measuring A354nm to be an average of 2 CEA specific peptides for every DIIIb molecule and the conjugate was soluble in aqueous solutions. Size exclusion chromatography using Superdex 200 column (GE Healthcare Piscataway, N.J.) was used for purification. Purified anti-CEA peptide-DIIIb conjugates were then radiolabeled with ^124I and injected intravenously in four athymic nude mice bearing LS174T (CEA positive) and C6 (CEA negative) tumors. Mice were imaged by small animal PET/CT at 4, 20 and 27 h, after which mice were euthanized, dissected and tissues/organs were counted in a gamma well counter.

Data set [3] has as its system LS174T (CEA positive) tumor. In kind it is in vivo, athymic nude mice. The method, then: as §1

Consider “DIII H464A: HSA domain III variant with H464 mutated to alanine”, for which, in data set [1], the “AUC (time integral of the blood uptake)” value was 199 % ID/g × h, the “Aα (amplitude)” value stood at 44.95 % ID/g, the “Aβ (amplitude)” value was 11.41 % ID/g and the k1 was 1.438. For the same molecule, in data set [1], the k2 is reported as 0.068, the t1/2α was determined as 0.482 h and the t1/2β was 10.2 h.
As for “DIII WT: HSA domain III wild type (amino acid residues 384 to 585)”, in data set [1], the “AUC (time integral of the blood uptake)” value stood at 474.8 % ID/g × h, the “Aα (amplitude)” value was 36.2 % ID/g, the “Aβ (amplitude)” value came out at 16.81 % ID/g and the k1 is recorded as 0.3479. Moreover, in data set [1], the k2 was 0.04534 and the t1/2α amounted to 1.99 h.
Take “SDWVCEFIKSQWFCNVLASG [CEA specific, cyclic peptide, reference compound]”: the “Solubility in aqueous solution” value in data set [2] was “precipitated”.

B1: anti-CEA peptide-DIIIb conjugate: CEA specific cyclic peptide (HyNic) conjugated to 4FB-modified DIIIb, average of 2 peptides per DIIIb (conjugate)
chain: HADICTLSEKERQIKKQTALVELVKHKPKATKEQLKAVMDDFAAFVEKCCKADDKETCFAEEGKKLVAASQAALGL
peptide: SDWVCEFIKSQWFCNVLASG
modifications: cyclised or stapled
notes: CEA specific cyclic peptide (HyNic) conjugated to 4FB-modified DIIIb, average of 2 peptides per DIIIb
As for B1, in data set [3] (27 h), the “(CEA positive) tumor/(CEA negative) tumor ratio” value was 1.2, the Tumor/muscle ratio is reported as 5.1 and the tumor/blood ratio worked out at 0.51. Besides, the “Targeting of CEA positive tumor” value in data set [3] (PET/CT images) is recorded as “target the CEA positive tumor”. In data set [3] (mouse, in vivo), the Blood amounted to 3.00 % ID/g, the “C6 Tumor” value amounted to 1.26 % ID/g, the Carcass is listed as 0.56 % ID/g and the Kidneys is 3.66 % ID/g. Besides, in data set [3] (mouse, in vivo), the “LS174T Tumor” value is reported as 1.53 % ID/g, the Liver worked out at 1.42 % ID/g, the Lungs came out at 2.36 % ID/g and the Muscle was 0.30 % ID/g. In data set [3] (mouse, in vivo), the Spleen turned out to be 1.04 % ID/g and the Stomach is 1.07 % ID/g. Further, the “Solubility in aqueous solution” value in data set [2] is recorded as “soluble”.
